According to PMC9926225:

Tests used:
[1] = target: NTD truncated λCI (K192A, residues 101 to 236), C-hexahistidine-tagged (λ phage); experiment: SEC
[2] = target: RecA (1 to 335), N-heptahistidine-tagged (Escherichia coli); experiment: cryo-EM structure
Chain of RecA (1 to 335), N-heptahistidine-tagged (Escherichia coli) (A7ZQC8 2-336 limits assumed): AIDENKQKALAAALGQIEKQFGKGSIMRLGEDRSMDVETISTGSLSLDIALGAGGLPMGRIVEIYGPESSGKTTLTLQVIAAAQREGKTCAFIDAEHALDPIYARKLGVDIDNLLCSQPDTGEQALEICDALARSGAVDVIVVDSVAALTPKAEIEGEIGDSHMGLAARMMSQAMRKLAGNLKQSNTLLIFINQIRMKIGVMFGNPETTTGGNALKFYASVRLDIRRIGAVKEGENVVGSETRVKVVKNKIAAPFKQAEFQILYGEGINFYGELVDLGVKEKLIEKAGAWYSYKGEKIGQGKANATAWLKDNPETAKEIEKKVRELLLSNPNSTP

stoichiometry N [1] | stoichiometry N (DinI molecules per RecA protomer) [2] | Molecule
2 |  | NTD truncated λCI (K192A, residues 101 to 236), C-hexahistidine-tagged (domain or fragment)
 | 0.5 | DinI (natural protein) MRIEVTIAKTSPLPAGAIDALAGELSRRIQYAFPDNEGHVSVRYAAANNLSVIGATKEDKQRISEILQETWESADDWFVSE
